Laboratory results taken from article PMC10033316.

Assay: BS3 cross-linking, non-reducing SDS-PAGE, anti-Flag blot
Details: glycan changed form; control: K562/ADR cells (low GnT-III)

B1: TNF receptor 2 (TNFR2): GnT-III overexpression (protein)
parent chain: MAPVAVWAALAVGLELWAAAHALPAQVAFTPYAPEPGSTCRLREYYDQTAQMCCSKCSPGQHAKVFCTKTSDTVCDSCEDSTYTQLWNWVPECLSCGSRCSSDQVETQACTREQNRICTCRPGWYCALSKQEGCRLCAPLRKCRPGFGVARPGTETSDVVCKPCAPGTFSNTTSSTDICRPHQICNVVAIPGNASMDAVCTSTSPTRSMAPGAVHLPQPVSTRSQHTQPTPEPSTAPSTSFLLPMGPSPPAEGSTGDFALPVGLIVGVTALGLLIIGVVNCVIMTQVKKKPLCLQREAKVPHLPADKARGTQGPEQQHLLITAPSSSSSSLESSASALDRRAPTRNQPQAPGVEASGAGEARASTGSSDSSPGGHGTQVNVTCIVNVCSSSDHSSQCSSQASSTMGDTDSSPSESPKDEQVPFSKEECAFRSQLETPETLLGSTEEKPLPLGVPDAGMKPS
In the case of B1, the oligomerisation is reported as “decreases”.
